PMC12610408, “An Unbiased Cell‐Culture Selection Yields DNA Aptamers as Novel Senescent Cell‐Specific Reagents”

Biological target: fibronectin (native, purified from mouse plasma) (mouse, UniProt P11276 33-2477)
Assay: BLI; BLI: streptavidin biosensors, biotinylated aptamer (500 nM) immobilized, fibronectin analyte, 1x Octet Kinetics Buffer, 30 C, 1:1 fit; pull-down: streptavidin Dynabeads M-270, beads washed in PBS + 5 mM MgCl2
Conditions: protein: native; chain copies: 2; label: 5' 6-FAM; 3' BioTEG

Sequence of fibronectin (native, purified from mouse plasma) (P11276 33-2477): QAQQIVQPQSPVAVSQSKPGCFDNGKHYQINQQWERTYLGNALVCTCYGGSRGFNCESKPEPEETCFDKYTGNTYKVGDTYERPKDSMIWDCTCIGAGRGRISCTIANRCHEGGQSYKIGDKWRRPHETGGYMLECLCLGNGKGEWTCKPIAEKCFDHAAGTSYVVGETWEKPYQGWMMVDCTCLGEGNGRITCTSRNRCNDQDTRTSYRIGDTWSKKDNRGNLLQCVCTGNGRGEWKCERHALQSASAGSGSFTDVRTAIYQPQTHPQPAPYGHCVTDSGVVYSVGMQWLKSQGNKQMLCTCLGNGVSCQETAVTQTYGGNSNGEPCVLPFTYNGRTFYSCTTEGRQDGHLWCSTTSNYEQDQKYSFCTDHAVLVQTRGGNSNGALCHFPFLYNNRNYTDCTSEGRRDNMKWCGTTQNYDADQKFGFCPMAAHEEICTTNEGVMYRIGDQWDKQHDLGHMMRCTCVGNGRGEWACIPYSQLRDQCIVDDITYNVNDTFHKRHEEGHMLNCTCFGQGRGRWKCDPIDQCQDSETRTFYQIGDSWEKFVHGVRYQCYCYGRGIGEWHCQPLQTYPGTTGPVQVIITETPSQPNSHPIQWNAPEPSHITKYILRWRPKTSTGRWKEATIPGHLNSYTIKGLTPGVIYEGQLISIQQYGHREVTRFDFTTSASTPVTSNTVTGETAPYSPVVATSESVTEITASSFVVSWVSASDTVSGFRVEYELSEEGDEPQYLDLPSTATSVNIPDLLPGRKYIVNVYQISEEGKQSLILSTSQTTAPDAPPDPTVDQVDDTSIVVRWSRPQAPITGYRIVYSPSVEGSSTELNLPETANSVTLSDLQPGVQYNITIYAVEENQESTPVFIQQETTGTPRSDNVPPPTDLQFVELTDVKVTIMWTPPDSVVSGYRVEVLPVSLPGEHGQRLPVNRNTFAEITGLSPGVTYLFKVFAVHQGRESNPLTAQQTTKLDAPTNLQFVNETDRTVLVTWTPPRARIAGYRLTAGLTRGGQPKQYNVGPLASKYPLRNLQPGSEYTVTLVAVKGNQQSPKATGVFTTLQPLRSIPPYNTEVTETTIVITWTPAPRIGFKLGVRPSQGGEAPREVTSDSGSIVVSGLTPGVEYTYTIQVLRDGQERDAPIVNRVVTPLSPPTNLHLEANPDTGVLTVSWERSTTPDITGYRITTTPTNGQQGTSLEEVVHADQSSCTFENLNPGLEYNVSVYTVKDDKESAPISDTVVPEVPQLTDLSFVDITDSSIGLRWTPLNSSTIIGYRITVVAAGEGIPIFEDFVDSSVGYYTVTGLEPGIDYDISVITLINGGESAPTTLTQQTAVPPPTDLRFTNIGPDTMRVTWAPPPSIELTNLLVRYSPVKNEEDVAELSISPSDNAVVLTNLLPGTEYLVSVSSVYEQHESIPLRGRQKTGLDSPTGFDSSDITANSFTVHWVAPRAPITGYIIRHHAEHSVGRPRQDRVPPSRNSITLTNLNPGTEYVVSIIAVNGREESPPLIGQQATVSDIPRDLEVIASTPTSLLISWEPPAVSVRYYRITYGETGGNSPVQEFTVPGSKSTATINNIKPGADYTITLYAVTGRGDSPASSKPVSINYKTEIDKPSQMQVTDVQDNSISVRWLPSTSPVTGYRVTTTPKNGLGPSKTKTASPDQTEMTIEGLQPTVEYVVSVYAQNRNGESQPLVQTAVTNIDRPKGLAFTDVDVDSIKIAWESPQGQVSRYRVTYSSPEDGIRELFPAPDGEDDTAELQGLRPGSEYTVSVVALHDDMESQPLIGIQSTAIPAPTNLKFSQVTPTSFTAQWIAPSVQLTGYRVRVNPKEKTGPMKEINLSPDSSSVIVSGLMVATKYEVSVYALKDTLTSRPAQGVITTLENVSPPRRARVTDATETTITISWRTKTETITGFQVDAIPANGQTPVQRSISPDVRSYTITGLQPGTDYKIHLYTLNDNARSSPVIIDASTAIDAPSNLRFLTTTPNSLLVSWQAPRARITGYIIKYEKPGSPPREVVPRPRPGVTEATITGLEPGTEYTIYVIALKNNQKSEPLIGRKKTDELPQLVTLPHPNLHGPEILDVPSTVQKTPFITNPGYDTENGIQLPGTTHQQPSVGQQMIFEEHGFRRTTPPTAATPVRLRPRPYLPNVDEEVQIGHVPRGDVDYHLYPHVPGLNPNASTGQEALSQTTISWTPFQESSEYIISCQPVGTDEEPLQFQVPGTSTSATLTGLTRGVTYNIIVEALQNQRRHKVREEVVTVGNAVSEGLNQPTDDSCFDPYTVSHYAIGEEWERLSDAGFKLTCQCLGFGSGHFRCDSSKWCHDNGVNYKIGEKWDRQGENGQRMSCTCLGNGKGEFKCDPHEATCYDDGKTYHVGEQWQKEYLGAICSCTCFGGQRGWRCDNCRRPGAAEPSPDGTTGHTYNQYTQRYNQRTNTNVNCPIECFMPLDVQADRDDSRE

B1: aptamer 6756 (ssDNA)
DNA: TGCGTATTGACACATGCGTGAAACGGACTTTTATTAGACAAATAATGCATGTCTCGAATTCAGGCATAGGTATGGGCTTT
Kd: 0.921 nM

B2: aptamer 6762 (ssDNA)
DNA: TGCGTATTGACACATGCGTGGCTTAATGCAATCCATCTGTTGCATTTTTCTAAACGTCGCCAGGCATAGGTATGGGCTTT
Kd: 0.579 nM

B3: negative control oligonucleotide 6766 (ssDNA)
DNA: TGCGTATTGACACATGCGTGCTTGTTATATAACGTGTCATAGCGTCCAAAAAGAAGTACACAGGCATAGGTATGGGCTTT
binding result: no binding
